In EP4725966A1 (SHANGHAI RUOTUO BIOSCIENCES CO., LTD., dated 2024):
Read-outs that look alike come from different tables or passages of the source.

T1: Human HER4-ECD-His (human, UniProt Q15303 26-651)
T1 construct: extracellular domain; not shown: His tag
T1 sequence (looked up): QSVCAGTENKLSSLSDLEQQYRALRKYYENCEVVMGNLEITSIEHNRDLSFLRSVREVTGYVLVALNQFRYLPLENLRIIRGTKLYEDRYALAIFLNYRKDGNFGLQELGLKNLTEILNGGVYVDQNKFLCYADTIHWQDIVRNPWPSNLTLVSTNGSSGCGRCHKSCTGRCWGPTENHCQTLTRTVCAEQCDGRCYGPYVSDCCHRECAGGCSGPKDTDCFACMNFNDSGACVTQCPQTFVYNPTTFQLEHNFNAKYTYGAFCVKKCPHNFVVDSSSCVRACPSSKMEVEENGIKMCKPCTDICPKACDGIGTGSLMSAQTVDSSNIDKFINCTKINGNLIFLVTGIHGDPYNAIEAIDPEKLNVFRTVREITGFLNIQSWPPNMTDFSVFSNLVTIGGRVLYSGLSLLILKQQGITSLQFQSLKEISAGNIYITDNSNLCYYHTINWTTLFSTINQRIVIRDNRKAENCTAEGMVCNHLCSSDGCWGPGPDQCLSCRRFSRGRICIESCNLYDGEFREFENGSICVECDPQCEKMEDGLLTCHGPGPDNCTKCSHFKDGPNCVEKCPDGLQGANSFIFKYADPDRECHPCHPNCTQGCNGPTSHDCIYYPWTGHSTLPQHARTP


Columns and labels:
human HER3-ECD-His [1] = target: T2, human HER3-ECD-His (human, UniProt P21860 20-643); assay: Octet (BLI)
T2 construct: extracellular domain; Fusion protein of the extracellular domain of human HER3 and a His tag; also called hHER3-ECD-His; human HER3 extracellular domain protein; not shown: His tag

cynomolgus HER3-ECD-His [2] = target: T3, cynomolgus HER3-ECD-His (cynomolgus monkey, UniProt G7PIG5 20-643); assay: Octet (BLI)
T3 construct: extracellular domain; Bought protein (Sino Biological); also called Cyno HER3-ECD-His; Cyno HER3; not shown: His tag
T3 sequence (G7PIG5 entry or part of it): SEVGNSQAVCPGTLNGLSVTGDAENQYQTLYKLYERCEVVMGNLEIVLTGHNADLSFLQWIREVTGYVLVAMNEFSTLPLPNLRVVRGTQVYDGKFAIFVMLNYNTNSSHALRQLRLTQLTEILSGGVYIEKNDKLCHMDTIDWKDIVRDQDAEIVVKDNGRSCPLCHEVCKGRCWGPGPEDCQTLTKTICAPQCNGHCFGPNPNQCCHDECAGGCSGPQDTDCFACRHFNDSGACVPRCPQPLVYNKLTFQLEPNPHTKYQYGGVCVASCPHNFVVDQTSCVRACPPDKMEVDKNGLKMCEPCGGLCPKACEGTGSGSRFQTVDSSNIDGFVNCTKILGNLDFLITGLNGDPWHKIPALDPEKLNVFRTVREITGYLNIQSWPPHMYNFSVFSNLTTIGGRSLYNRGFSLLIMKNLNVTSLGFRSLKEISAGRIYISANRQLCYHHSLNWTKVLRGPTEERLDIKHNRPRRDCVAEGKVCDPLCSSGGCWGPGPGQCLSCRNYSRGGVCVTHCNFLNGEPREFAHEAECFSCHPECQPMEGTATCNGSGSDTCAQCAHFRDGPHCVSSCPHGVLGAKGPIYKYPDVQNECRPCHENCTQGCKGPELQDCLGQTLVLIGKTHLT

Human HER4-ECD-His = target: T1, Human HER4-ECD-His; assay: ELISA on coated Human HER4-ECD-His, antibody 25 nM to 0.011 nM
Human HER2-ECD-His = target: T4, Human HER2-ECD-His (human, UniProt P04626 23-652); assay: ELISA on coated Human HER2-ECD-His, antibody 25 nM to 0.011 nM
T4 construct: extracellular domain; not shown: His tag

Human EGFR-ECD-His = target: T5, Human EGFR-ECD-His (human, UniProt P00533 25-645); assay: ELISA on coated Human EGFR-ECD-His, antibody 25 nM to 0.011 nM
T5 construct: extracellular domain; not shown: His tag

human HER3-ECD-His [3] = target: T2, human HER3-ECD-His; assay: Octet (BLI); remark: listed apart in the source
cynomolgus HER3-ECD-His [4] = target: T3, cynomolgus HER3-ECD-His; assay: Octet (BLI); remark: listed apart in the source
human HER3-ECD-His [5] = target: T2, human HER3-ECD-His; assay: Octet (BLI); remark: listed apart in the source
cynomolgus HER3-ECD-His [6] = target: T3, cynomolgus HER3-ECD-His; assay: Octet (BLI); remark: listed apart in the source
human HER3 on cells = target: T6, human HER3 on cells (human, UniProt P21860 20-1342); assay: fluorescence imaging of HER3-overexpressing A375 cells, 100 nM, 0 hour
T6 construct: whole, on cells; also called Human HER3-CHO; CHO cells overexpressing human HER3

[7] = target: T7, cynomolgus HER3 on CHO cells (cynomolgus monkey, UniProt G7PIG5 20-1342); assay: FACS on CHO cells overexpressing cynomolgus HER3
T7 construct: whole, on cells; also called CHO cells overexpressing cynomolgus HER3; CHO cells overexpressing cynomolgus monkey HER3
T7 sequence (G7PIG5 entry or part of it): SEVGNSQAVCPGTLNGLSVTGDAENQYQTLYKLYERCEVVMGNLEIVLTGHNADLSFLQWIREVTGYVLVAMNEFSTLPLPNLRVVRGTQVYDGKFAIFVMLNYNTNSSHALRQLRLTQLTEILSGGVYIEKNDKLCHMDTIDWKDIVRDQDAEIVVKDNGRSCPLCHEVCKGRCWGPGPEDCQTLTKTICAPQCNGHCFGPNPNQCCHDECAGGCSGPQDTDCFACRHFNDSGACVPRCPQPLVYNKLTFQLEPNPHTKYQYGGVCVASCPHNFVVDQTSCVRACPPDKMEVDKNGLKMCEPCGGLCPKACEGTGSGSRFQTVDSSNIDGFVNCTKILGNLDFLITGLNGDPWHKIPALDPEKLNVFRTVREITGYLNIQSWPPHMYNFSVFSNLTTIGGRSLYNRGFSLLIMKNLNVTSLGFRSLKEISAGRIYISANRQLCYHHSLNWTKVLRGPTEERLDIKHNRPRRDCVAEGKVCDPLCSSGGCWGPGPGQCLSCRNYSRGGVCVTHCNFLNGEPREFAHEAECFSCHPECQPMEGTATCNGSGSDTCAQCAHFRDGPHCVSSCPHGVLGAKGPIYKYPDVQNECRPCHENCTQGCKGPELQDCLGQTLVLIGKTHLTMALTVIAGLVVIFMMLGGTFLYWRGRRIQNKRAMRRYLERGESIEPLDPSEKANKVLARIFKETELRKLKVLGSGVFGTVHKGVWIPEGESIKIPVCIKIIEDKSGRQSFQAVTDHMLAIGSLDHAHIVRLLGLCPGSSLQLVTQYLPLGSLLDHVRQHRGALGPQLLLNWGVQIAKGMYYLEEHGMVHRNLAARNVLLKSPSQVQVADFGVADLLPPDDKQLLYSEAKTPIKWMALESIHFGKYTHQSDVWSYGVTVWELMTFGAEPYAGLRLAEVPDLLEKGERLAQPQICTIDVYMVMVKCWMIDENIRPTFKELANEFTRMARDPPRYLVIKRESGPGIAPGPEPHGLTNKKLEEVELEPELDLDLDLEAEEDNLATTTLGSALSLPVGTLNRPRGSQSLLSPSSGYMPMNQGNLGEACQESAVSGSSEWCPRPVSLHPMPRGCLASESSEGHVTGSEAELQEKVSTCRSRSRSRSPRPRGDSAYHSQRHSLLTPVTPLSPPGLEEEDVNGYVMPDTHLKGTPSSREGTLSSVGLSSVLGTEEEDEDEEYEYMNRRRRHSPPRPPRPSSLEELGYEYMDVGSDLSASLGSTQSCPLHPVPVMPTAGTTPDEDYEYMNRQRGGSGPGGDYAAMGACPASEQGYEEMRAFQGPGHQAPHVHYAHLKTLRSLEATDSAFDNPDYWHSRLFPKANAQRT

Binder	Kd (human HER3-ECD-His [1]) [nM]	koff (human HER3-ECD-His [1]) [s⁻¹]	kon (human HER3-ECD-His [1]) [M⁻¹ s⁻¹]	Kd (cynomolgus HER3-ECD-His [2]) [nM]	koff (cynomolgus HER3-ECD-His [2]) [s⁻¹]	kon (cynomolgus HER3-ECD-His [2]) [M⁻¹ s⁻¹]	binding result (Human HER4-ECD-His)	binding result (Human HER2-ECD-His)	binding result (Human EGFR-ECD-His)	Kd (human HER3-ECD-His [3]) [nM]	koff (human HER3-ECD-His [3]) [s⁻¹]	kon (human HER3-ECD-His [3]) [M⁻¹ s⁻¹]	Kd (cynomolgus HER3-ECD-His [4]) [nM]	koff (cynomolgus HER3-ECD-His [4]) [s⁻¹]	kon (cynomolgus HER3-ECD-His [4]) [M⁻¹ s⁻¹]	KD fold lower than patritumab (human HER3-ECD-His [5]) [fold]	KD fold lower than patritumab (cynomolgus HER3-ECD-His [6]) [fold]	binding result (human HER3 on cells)	EC50 fold against patritumab [7] [fold]
cHE6-G1W (antibody, human IgG1, V domains shown, also called chimeric HE6 antibody; not shown: human IgG1 heavy chain constant region, GenBank AXN93653.1; human kappa light chain constant region, GenBank AWK57456.1) VH: EVQLQQSGPDLVKPGTSVKMSCKASGYTFTDYYMHWVRQSHGKSLEWIGYINPNNGDAIYNQKFKGKATLTVNKSSTTAYMALRSLTSEDSAVYFCATYDYGGDFYFDVWGTGTTVTVSS VL: DIELTQSPALMSASPGEKVTMTCSASSSVSYMYWYQQKPRSSPKPWIYLTSNLASGVPARFSGSGSGTSYSLTISSMEAEDAATYYCQQWSRNPLTFGAGTKLELKR	0.00114	5.11e-07	450000	1.25	0.000706	565000	–	–	–	–	–	–	–	–	–	–	–	–	–
cHE7-G1W (antibody, human IgG1, V domains shown, also called chimeric HE7 antibody; not shown: human IgG1 heavy chain constant region, GenBank AXN93653.1; human kappa light chain constant region, GenBank AWK57456.1) VH: EVQLQQSGPDLVKPGTSVKMSCKASGYTFTDYYMHWVRQSHGKSLEWIGYINPNNGDAIYNQKFKGKATLTVDKSSTTAYMALRSLTSEDSAVYFCATYDYGGDFYFDVWGTGTTVTVSS VL: DIELTQSPALMSASPGEKVTMTCSASSSVSYMYWYQQKPRSSPKPWIYLTSNLASGVPARFSGSGSGTSYSLTISSMEAEDAATYYCQQWSRNPLTFGAGTKLELKR	0.00131	5.57e-07	425000	1.36	0.000912	672000	–	–	–	–	–	–	–	–	–	–	–	–	–
hHE4-G1W (antibody, human IgG1, V domains shown, Humanized from cHE4-G1W; also called humanized HE4 antibody; not shown: human IgG1 heavy chain constant region; human light chain constant region) VH: QVQLVESGGGLVKPGGSLRLSCAASGFTFSSYVMSWVRQAPGKGLEWVATISDGDSSTYYADSVKGRFTISRDNAKNSLYLQMNSLRAEDTAVYYCARDKGHGYDEGAFVYWGQGTLVTVSS VL: DIQMTQSPSSLSASVGDRVTITCRASENIYSYLAWYQQKPGKAPKLLIYNAKTLAEGVPSRFSGSGSGTDFTLTISSLQPEDFATYYCQNHYGTPYTFGQGTKLEIKR	–	–	–	–	–	–	no binding (tested: 25 nM)	no binding (tested: 25 nM)	no binding (tested: 25 nM)	0.199	9.84e-05	495000	0.208	9.11e-05	439000	~10	~10	–	–
hHE4-G1W-DXd (antibody, V domains shown, maleimide-GGFG-DXd conjugated to cysteines of reduced interchain disulfide bonds; antibody-to-DXd ratio 1:8, not shown: human IgG1 heavy chain constant region; human light chain constant region) VH: QVQLVESGGGLVKPGGSLRLSCAASGFTFSSYVMSWVRQAPGKGLEWVATISDGDSSTYYADSVKGRFTISRDNAKNSLYLQMNSLRAEDTAVYYCARDKGHGYDEGAFVYWGQGTLVTVSS VL: DIQMTQSPSSLSASVGDRVTITCRASENIYSYLAWYQQKPGKAPKLLIYNAKTLAEGVPSRFSGSGSGTDFTLTISSLQPEDFATYYCQNHYGTPYTFGQGTKLEIKR	–	–	–	–	–	–	–	–	–	–	–	–	–	–	–	–	–	binds	–
patritumab (antibody, V domains shown) VH: QVQLQQWGAGLLKPSETLSLTCAVYGGSFSGYYWSWIRQPPGKGLEWIGEINHSGSTNYNPSLKSRVTISVETSKNQFSLKLSSVTAADTAVYYCARDKWTWYFDLWGRGTLVTVSS VL: not shown	0.869	0.000224	258000	2.34	0.000306	131000	–	–	–	1.33	0.000296	222000	1.92	0.000371	194000	–	–	–	–
cHE4-G1W (antibody, human IgG1, V domains shown, also called chimeric HE4 antibody; cHE4-G1W4; not shown: human IgG1 heavy chain constant region, GenBank AXN93653.1; human kappa light chain constant region, GenBank AWK57456.1) VH: EVQLVESGGGLVKPGGSLKLSCAASGFTFSSYVMSWVRQTPEKRLEWVATISDGDSSTYYPDNVKGRFTISRDNAKNNLFLQMSHLKSEDTAMYFCARDKGHGYDEGAFVYWGQGTLVTVSA VL: DIQMTQSPASLSASVEETVTITCRASENIYSYLAWYQQKQGKSPQLLVYNAKTLAEGVPSRFSGSGSGTEFSLKINSLQPEDFGSYYCQNHYGTPYTFGGGTKLEIKQ	0.409	0.000234	573000	0.31	0.000116	374000	–	–	–	0.233	0.000112	482000	0.227	9.63e-05	425000	–	–	–	2
cHE1-G1W (antibody, human IgG1, V domains shown, also called chimeric HE1 antibody; not shown: human IgG1 heavy chain constant region, GenBank AXN93653.1; human kappa light chain constant region, GenBank AWK57456.1) VH: EVKLQESGPGLVKPSQSLSLTCSVTGYSITSGYYWNWIRQFPGNKLEWMGYISYDGSNNYNPSLKNRISITRDTSKNQFFLNLNSVTTEDTATYYCARVDWDGDAMDYWGQGTSVTVSS VL: DIVLTQSPASLAVSLGQRATISCRASESVDNYGIRLMHWYQQKSGQPPKLLIHRASNLESGIPARFSGSGSRTDFTLTINPVETDDVATYYCQQSNKDPFTFGSGTKLEIKR	4.88	0.00356	728000	4.01	0.0017	423000	–	–	–	–	–	–	–	–	–	–	–	–	–
cHE5-G1W (antibody, human IgG1, V domains shown, also called chimeric HE5 antibody; not shown: human IgG1 heavy chain constant region, GenBank AXN93653.1; human kappa light chain constant region, GenBank AWK57456.1) VH: EVQLQESGPGLVKPSQSLSLTCSVTGYSITSGYYWNWIRQFPGNKLEWMGYISYDGSNNYNPSLKNRISITRDTSKNQFFLKLNSVTTEDTATYYCASYDYDGDWFAYWGQGTLVTVSA VL: DIVLTQSPASLAVSLGQRATISCRASESVDHYGSSFMHWYQQKPGQPPKLLIYRASNPESGIPARFSGSGSRTDFTLTINPVETDDVATYYCQQSNKDPPTFGGGTKLEIKR	3.56	0.00253	710000	3.58	0.00154	429000	–	–	–	–	–	–	–	–	–	–	–	–	–
cHE2-G1W (antibody, human IgG1, V domains shown, also called chimeric HE2 antibody; not shown: human IgG1 heavy chain constant region, GenBank AXN93653.1; human kappa light chain constant region, GenBank AWK57456.1) VH: EVKLQESGPGLVKPSQSLSLTCSVTGYSITSGYYWNWIRQFPGNKLEWMGYISYDGSNNYNPSLKNRISITRDTSKNQFFLKLNSVTTEDTATYYCARMDWDGDAMDYWGQGTSVTVSS VL: DIVLTQSPASLAVSLGQRATISCRASESVDNYGISLMHWYQQKPGQPPKLLIYRASNLESGIPARFSGSGSRTDFTLTINPVETDDVATYYCQQSNKDPPTFGAGTKLELKR	3.57	0.00308	861000	3.25	0.00165	507000	–	–	–	–	–	–	–	–	–	–	–	–	–
